# Reference: the domain aggregation screens of Martell et al. (2025)
# Test: soluble fraction after stress (log2 fold change); higher = more stays soluble; pooled small domains, quantitative proteomics
# Conditions: stress: pH 4
# Procedure, shortened: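 Values are on a log2 scale, where higher means more of the domain stayed soluble after pH 4 stress. They are fold changes in the soluble amount of each domain from pooled custom libraries, measured by high-throughput quantitative proteomics. The fold change is taken to reflect aggregation propensity.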
row,Sequence,soluble fraction (log2)
1,HMTKLPLLVELSRIIPTDTWVKKIKFSLGSVEFVGISKSASRLLPIVENSSYFHDTKFIGTIVT,-0.274
2,HMTKNIIVTTSVKTSDELVEVAKNHALNLELDFNYRNKKTIKELLSSFDGLVVIYKNKISYFEDNSELF,0.22
3,HMTKQDYLTALQQELNKNAVADAEDIVSEYEQHFQFKLADGFTEEEIAAKLGAPAQIALQFAG,-1.64
4,HMTKQRSIILDLLKANQDRHLTAEEMLELLNQNHTPVSKATLYRYLDMLVSQNAVRKFIIDDQPSAGYQYL,-0.0717
5,HMTKSTSMDLGGFMIVEGSETVRLGGQILQKDVDYTIDYFSGKINFISEEALNPGAEISVSYEENQ,-1.44
6,HMTKTEFLEALRRALNGNMAAASVEDNLKFYENYFYSEEAKGRSEAAVLSELGDPRILARTLIDAAER,-0.816
7,HMTKTEFLNLLEQRLFVLNDNERADLLSEYKQHIEMKIQSGLSEEEAIADFGDPEELIKELLEAY,-1.13
8,HMTKTFDSPEDADNDVLAKTLFQIFGVQSVYLKENFVTITKSNSVGWHTLMEKTGHTLEEHLKF,0.0576
9,HMTKTKFLSKDMILSAMSRTKSNRAAARYLSVSFVHYKKYAREYKDETSGVSLWEKHKNQSGTGIPK,0.0318
10,HMTKTSQEDEDIMRHLDELHTRWPFLGQRKLIEELKDQGIQIGRKRLRRLMKVMGIEAIAPK,0.173
11,HMTKVMVPNVVGMSRGEAEEALRGVKLQVDLKREVSDDPEVKPEEVLRQTPDAQTSVPQGSVVTLYVADKP,-0.407
12,HMTKYEKKIFEIVNASRDHLTAEQVLAALREEYPAVSQATVYNNLKKLTSDGLLRKLTLADSPDRYD,0.211
13,HMTLAAATESREYLADLARRLDAADHGDKTRIKAEAAGLLGWSMATLHARLARDVGWTSGRK,-0.166
14,HMTLDEFTDLMNLFKTGHIEQKPVILYGYNYWTSLKSWFEFNNMKFPEMYIDGIINTVDEFKILYNKIF,-0.77
15,HMTLGPKQMGEAIIKNLKEKTGKSLEEWSQRILIHELTDKKEIIDFLKNDNGLGHFQALKIFEHLNGK,-0.652
16,HMTLGQHIQALRKEAGYSQEALGEALGVTRQSISKWESDQAIPEVDKLVTLSRLFQVPVGVLLQVEQP,-0.166
17,HMTLGSVRTVRQVLDDGRLLVADSGGNVTLVRRAGTLAKENVNTGDRVSVDSSVRFALTLIPV,-0.00374
18,HMTLPEKSKRLFSQDDFWDQIFYRIGEGQSLREVSKYYKIPYTTIHDRIHSDEGIKLKYLEALTS,-0.592
19,HMTLPQEPTVLPRPLRVGDTVHIRTLDKDAEVLALPDARGMVAVRAGIINTKVKLTDLTLVEEK,≥ 0.43
20,HMTLRDRDQALEELWGQLADVPMDSETERLLEPFMGWGVGVSRDEIWHWFDRRHSKGIGHLLYS,-1.67
21,HMTLSENEKIIVDTIMKYQPLHIDVLNQQVKVDFYTLLGLLTKLEMEGIVLKNPGNIYKINTL,-0.865
22,HMTLTPEQQAARRSEIVDIALRLIAENGFQKTSMREIADLAKMGKSSLYDFFKTKDEIAVYAMEKK,-0.856
23,HMTMEFGEFLAKLRKERGYYQKEVAAYLNVTVATISNYEKNVHAPDLDTLVKLADFYDVSTDYLLQRT,-1.46

row,Sequence,soluble fraction (log2)
1,HMTMGAAEAQALKDEALELYRTGGTQEDVVRAIEMYEQAAEAGNAQAASDLAYLKANGVYETAMNN,-0.75
2,HMTMQQGTISRLNHSRGFGFLTTPDGEDLFFHRTNVHETPFARLQVGDRVTYDVQVTPRGTRADKVQLNM,-0.222
3,HMTMRFVVADGQNFGSIAQSKALEAVKKGNTEFNYKDVDYTVDIQSDDFYVVYQGRDIMGYASR,-1.89
4,HMTMTIEITVNGKTKTLVAELSLADLLRDLGMTKGRIAVELNGHIVPRSQFSSKTISNLDSIEIVQ,0.138
5,HMTNADRYIGQEATVTEKISNELSTGAVRIGGLVWTARTVDNSEAEEGERVTVEAIEGAKLLVKRR,-0.0323
6,HMTNEPRLTNMGFNKMLIENYKMILEYQDFFIRISTQIGIININGFDLKLGEMTADEVLVTGKIESIDL,≥ 0.43
7,HMTNIDRLIGQTAIVKETINNKKEQGVVRINGMDWTARTEEIDEVILKGKPVEILDIQGIKLIVRKK,0.161
8,HMTNIELYQRLLNLGFTPAQAKILLVQYDETRLTDNLNYVDFKKQQGNIENLPAYTTTIIKKDVRL,0.0954
9,HMTNIQFINLKMTDNHPWIHQYIKDIILPPQTRIVMIKRNDIKTIPKGERRIEKDDELILSAFESQT,-1.27
10,HMTNKKIILEIFQNSDKPLIVEEISKKMFEKTGKKMILSTIYRNLKNMEDVGILKKIYNEDGSYMYIF,-1.07
11,HMTNKQEYAYQWLKSSIIENKIKPSTLLVERHLSEMLHISRTPVRTALMRLADEGFVVISPGRGMVVA,-0.0492
12,HMTNQEFNAAFKPFLDYFPTTEMTKEKINIYYLALSDLSKEQLGSAFISMVKNRVYKNFPQVAEIRQYATN,-0.456
13,HMTNTDYPGKVVPVDPDGKTLKPDGDASYNDKPGTKVKTPTVPGYTAEVPNVEVPVGGGDIKVTYHKKPV,0.0461
14,HMTNVYSLIGKRGIVVEDIDWQKGTGQVKIDGELWSVKTNEQINISKGTEVEVENIEGVKVFVKPI,-0.458
15,HMTNYGTVRPGARGQAVTALQQALIRHGYKLTADGIYGRATRQAVRAFQQKHKLKVDGIVGSKTWALLLAD,-0.0192
16,HMTPDGNATVWSANGYGVRLRTGPGKGYAIIGVYSVGTTVKVLERGPAGGWDHIQVGSRVGYMMNEFLHYY,0.422
17,HMTPDLSEFKERLRQILPGEPIEVRTANDGIVLSGTVTSIAALDRALDLAERYAPDKVSNLLSVG,0.365
18,HMTPELTAEEREVLSLLGDEPRTLAELIAASGRDYAALSVLLMGLELSQAVRQLPGNRYERF,-1.36
19,HMTPGPFLVYITGAVERPNVLVTLDYGSRVIDALNAAGGSRIDANLDLVNLAQRLVDGDQIHVPTLR,-1.1
20,HMTPGPYETLKPAPLGSYIEPKIGFATAIEIARKEAVQLGIKTEAGGIWYGGDFPFYNVSFFDPDD,-0.985
21,HMTPKVTVPDVTGQTFSSAKQILESLGFTVKQQGSTDETDQVIDQNPTSGEADKGATITLTTKSS,-0.139
22,HMTPPAQQPHEGLPTDETATDAKTLVQKSRWWLEEEQRQREAGNTAYAERIRLALIQLLYRAERA,0.0525
23,HMTPQNAAAVLRYLSSGAIKGVGPSTAQRIVEKFGAESLDIIQNKPEELATIRGISLSKALAVSEEYNKQY,0.0689

row,Sequence,soluble fraction (log2)
1,HMTPTFSNQDLIKAGLAGSPVAKRRRERLGELLGIGYGNAKQLLKRLDLFAIDRPTFERAVAQLDQEGK,0.414
2,HMTPVSQIATKDIEEKIDSLSDEYKDPFILHFKGFKYKEIADQLDIPIGTVKSRIFIARKKLIDLLPDY,-0.391
3,HMTQEHDESVNLGKRLLDQALSRFGTSYRQLKKSEIKRILQSSGASTFKYILHQIGLGNRVPLAIANLIV,-0.0152
4,HMTQEMPAEVKKKADAFNNAMDEENYTEAKAILAELEQNTAPSYPLLLQMQTRYAFETASWE,-0.974
5,HMTQFSASSERAGAGGAYRTTLRAMEQNGDLLQISILLPDAVTAKHAATVWPERAQAIYTAILSELLK,-0.167
6,HMTQGIDQISFSQFLDKVQSGEVTDVRISGSDITGTLKTGGKFETVAGNYEKIWDLLRENKVVFVVDSP,-0.309
7,HMTQNSAITNRVLYMQRTLRQYGYAVPESGNFDRTTRAHAAEFLYNATGLPVRENQSVQEFYRAFQRVQG,0.203
8,HMTQRRLQSELDSIPGVGAGTRTKLLRTLGSVDAVLRASEAELLAAGANRRQVASIQAHAAAVER,0.0567
9,HMTQSQSLQSQFEQLEKAYQDNLHLLSPKQKLIIQEAGKIIQQLPQQAQIQAKVNLYQSLSAEISKESQQ,-0.107
10,HMTQTDINQIETLVHEGNKLAAVKLLMDTAHIGLKEAKDIIDNFFLGKQTDLQAAVAQVQTR,-0.722
11,HMTRHIQVNDSIASTPIEDVYFSTRTYNALLNNGISVIGDLSKYTHDDLYASFQGLGRAGVLEIEAYLRQD,-1.32
12,HMTRHSSVDFAGYILRNKENEPIFGFGKHKGKTVVEVLQREQGYFGWLMEADFPLYTKKVLTAIRLNTLNS,0.316
13,HMTRLDLQNAFRVLPPEIQPAAVLFFLQERKQREIAKILGIGLPLVKYRIRKARELLAQFLRKEA,-0.073
14,HMTRNEFLTALRGRLSALPKEEQDAALKYYEEYFDEAESEEDAARQLGSPDSIAEKILADYA,-0.00949
15,HMTRQNTAVQQSDMAHHKASELTEGMSIVHSHFGRGTIISIETADDPRVTVDFSSEGRKTMLLRFAKFAIE,-1.08
16,HMTRQRQLIYNIIQRADDHPTAEMIYARAKAEMPSIAFGTVYRNLKLMVDAGEILHIPVAGEPDRYDK,0.142
17,HMTRVANIPYSEFLKLVETDKINDVSMVGKTISGHLDDGTKFSTYTPPNDPNLIDKLSKHNVIIKAGPE,0.0499
18,HMTRVDKLQTWLSLPREQRDWDEGALMLLQLTGNKIMYRNLSVNPEGKANFIEGKLQQYLEFRLA,-1.16
19,HMTSAHEKAFDLFDGGKLSEKALLIAVGAERSGFELAGDLRLRTLTAFEDGRLSEDAMIKLL,-1.5
20,HMTSAIAEGTVIRLTQSTNIRESMSEDAPKVATAFSGEKVTVIMSYAEGWTKVTYGDKTGYIKTELL,-0.443
21,HMTSAPHHIAAVLRDAIYRGVLEEGGPLHQARIAQSLGVSPIPLREALRLLETEGLVEFRGYRGAFVT,-0.8
22,HMTSDADSLRDKTGYVAEQVTSKGGKVNLYDGGFDSLYSARSTGETISTGTEIRVVDPGGGNMLVVEPV,-0.356
23,HMTSDYEPSEKDEKAVIGIAFLRNTDVYDVDIDKAEAIKALKANNDIYQKFVKFFPFVKLPSLYDDFQ,-0.109
